Assays:
[1] = target: T1, MBP-Rop (recombinant wild-type Rop, Drosophila Unc-18) (Drosophila melanogaster, UniProt Q07327 1-597); experiment: pull-down; GST-syx1A^ΔC (2 ug) bound to GST bind resin, 1 hr at 4°C with MBP-Rop or MBP-Rop^G11 at 0-6 uM in NP40 buffer (1% NP-40, 150 mM NaCl, 2 mM EDTA, phosphate); SDS-PAGE, Coomassie, fraction bound quantified in ImageJ, Kd from a dose response curve fit (Prism 6); n = 2; conditions: both partners purified
T1 construct: Rop (Ras opposite, Unc-18 orthologue), Drosophila melanogaster; cDNA SD04216 amplified with primers from the start ATG to the stop codon and cloned into pMAL-c5E; Expressed from pMAL-c5E (NEB N8110); printed size of the fusion 110 kDa; also called MBP-Rop^WT; Ras opposite; source: Rosetta cells (Novagen), purified (amylose resin, eluted with maltose)
T1 sequence (Q07327 whole entry, the tested form may be a part): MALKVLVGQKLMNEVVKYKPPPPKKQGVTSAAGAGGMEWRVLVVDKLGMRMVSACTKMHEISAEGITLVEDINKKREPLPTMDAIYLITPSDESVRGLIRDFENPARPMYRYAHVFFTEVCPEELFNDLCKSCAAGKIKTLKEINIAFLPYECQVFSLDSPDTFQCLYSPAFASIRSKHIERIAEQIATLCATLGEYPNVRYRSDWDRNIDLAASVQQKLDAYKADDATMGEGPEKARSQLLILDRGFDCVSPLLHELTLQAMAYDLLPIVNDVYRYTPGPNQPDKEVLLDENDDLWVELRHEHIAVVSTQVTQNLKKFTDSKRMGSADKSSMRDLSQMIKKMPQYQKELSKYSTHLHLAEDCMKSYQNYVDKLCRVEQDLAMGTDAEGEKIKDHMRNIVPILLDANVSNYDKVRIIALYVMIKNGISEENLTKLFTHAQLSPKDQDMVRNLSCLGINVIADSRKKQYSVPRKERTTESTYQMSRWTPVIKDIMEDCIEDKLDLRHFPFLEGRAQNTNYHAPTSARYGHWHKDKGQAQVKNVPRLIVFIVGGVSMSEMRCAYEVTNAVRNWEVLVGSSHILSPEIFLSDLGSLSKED

MBP-Rop^G11 (D45N) = target: T2, MBP-Rop^G11 (D45N) (Drosophila melanogaster, UniProt Q07327 1-597, D45N); experiment: as above; conditions: both partners purified
T2 construct: Rop (Ras opposite, Unc-18 orthologue), Drosophila melanogaster; PMAL-Rop with the point mutation of the Rop^G11 allele (Asp45 to Asn; nucleotide G133A) made by site-directed mutagenesis; Same construct as m1 with D45N; the mutation is that of the Rop^G11 allele of Harrison et al., 1994; also called recombinant Rop^G11 mutant protein; source: Rosetta cells (Novagen), purified (amylose resin, …)
T2 sequence (Q07327 whole entry D45N): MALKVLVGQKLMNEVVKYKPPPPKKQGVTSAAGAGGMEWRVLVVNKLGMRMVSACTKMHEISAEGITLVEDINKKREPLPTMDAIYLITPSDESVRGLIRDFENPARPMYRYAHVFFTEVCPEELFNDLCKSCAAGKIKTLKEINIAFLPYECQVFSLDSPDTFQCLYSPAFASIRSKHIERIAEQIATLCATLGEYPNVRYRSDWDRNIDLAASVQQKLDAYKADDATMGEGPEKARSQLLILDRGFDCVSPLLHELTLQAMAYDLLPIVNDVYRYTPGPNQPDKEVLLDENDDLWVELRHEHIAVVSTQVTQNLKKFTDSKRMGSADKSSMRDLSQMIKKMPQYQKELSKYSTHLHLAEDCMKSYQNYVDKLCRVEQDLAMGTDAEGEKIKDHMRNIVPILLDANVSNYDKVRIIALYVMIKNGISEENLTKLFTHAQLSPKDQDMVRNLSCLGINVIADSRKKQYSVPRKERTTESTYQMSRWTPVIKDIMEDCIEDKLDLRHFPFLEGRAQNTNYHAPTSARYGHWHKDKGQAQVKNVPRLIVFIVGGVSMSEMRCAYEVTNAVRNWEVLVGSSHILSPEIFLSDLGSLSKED

B1: GST-syx1A^ΔC (Syntaxin1A, amino acids 1-268) (domain or fragment, Drosophila melanogaster, UniProt Q24547 1-268, looked up)
chain: MTKDRLAALHAAQSDDEEETEVAVNVDGHDSYMDDFFAQVEEIRGMIDKVQDNVEEVKKKHSAILSAPQTDEKTKQELEDLMADIKKNANRVRGKLKGIEQNIEQEEQQNKSSADLRIRKTQHSTLSRKFVEVMTEYNRTQTDYRERCKGRIQRQLEITGRPTNDDELEKMLEEGNSSVFTQGIIMETQQAKQTLADIEARHQDIMKLETSIKELHDMFMDMAMLVESQGEMIDRIEYHVEHAMDYVQTATQDTKKALKYQSKARRKK
notes: Syntaxin 1A, Drosophila melanogaster, amino acids 1-268; Expressed from pGEX-4T1; printed size of the fusion 60 kDa; The nucleotide change A802T would turn codon 268 into a stop, so the chain may end at residue 267 rather than 268; also called recombinant Syntaxin1A
With B1 as the binder, how does the Kd [1] read?
The Kd was 0.4 µM.

And the Kd (MBP-Rop^G11 (D45N))?
The Kd was 36.1 µM.

From publication PMC6250423, “Molecular mechanisms that stabilize short term synaptic plasticity during presynaptic homeostatic plasticity” (eLife, 2018)
